This data set is described as follows: soluble on expression in E. coli; label from the status in PepcDB or PDB records.
“QDFAEIYARFSDERANEQANRCSQCGVPFCQVHCPVSNNIPDWLKLTSEGRLEEAYEVSQATNNFPEICGRICPQDRLCEGNCVIEQSTHGAVTIGSVEKYINDTAWDQGWVKPRTPSRELGLSVGVIGAGPAGLAAAEELRAKGYEVHVYDRYDRMGGLLVYGIPGFKLEKSVVERRVKLLADAGVIYHPNFEVGRDASLPELRRKHVAVLVATGVYKARDIKAPGSGLGNIVAALDYLTTSNKVSLGDTVEAYENGSLNAAGKHVVVLGGGDTAMDCVRTAIRQGATSVKCLYRRDRKNMPGSQREVAHAEEEGVEFIWQAAPEGFTGDTVVTGVRAVRIHLGVADATGRQTPQVIEGSEFTVQADLVIKALGFEPEDLPNAFDEPELKVTRWGTLLVDHRTKMTNMDGVFAAGDIVRGASLVVWAIRDGRDAAEGIHAYAKAKAEAPVAVAAE”: the “soluble on expression in E. coli” value was “soluble”.
On to “MGSDKIHHHHHHMRPVYIATAYLGPIQQYCKMLQYPEVRIETAENYVKQTYRNRCVIAAANGPLSLSIPIVKPDTLKCQTKDIRISDHGNWRHLHWNALVSAYNMSPFFEYYADDLAPFYEKKYEFLLDFNEELRRLVCDLLDMQPAVVYTEHYEPEVANDFRETIRPKHEGEDPAFRPEPYYQVFREKFGFLPNLSIADLLFNMGPEGLVTLRASITGSL”, for which the “soluble on expression in E. coli” value was “not soluble”.
In the case of “MPSSTTVPTRRGLVSGPSSSDAHGDMPAVSVIMNCLNCERDLAEAIGSVFAQTFDDWEIVFWDNGSTDRSAEIAQGFGERVRYFRATETVPLGAARNLAIAKARGEFIAFLDCDDVWLPEKLERQVALFRANPRVGLVCTDTVMFTGAKDLNRLFEHAHPARGHVFRELMTTQWISMSSAVIRRNALDGMDHWFDESLNVCEEADVFYRIAWDWELDHVDAPLTRWRVHGANTTFRKFGQFAEETLRILDKHRAMYPGYDERYADLVALLRRRAAFQRAVALWREGRGAEARATIAPFDASPKFRLFRLATYLPGALFDPLARLYFALPAFLRRLEHHHHHH” it was “not soluble”; in that of “MGSDKIHHHHHHMSIEIRQVNNLRKKRQFFQYNYQLYKDDPYWVSWPVANLVKMFDPEECGFYEHGILEAWLAYQNGKIVGRIAGSIDGTYNQTYGVQTAFFGFYECIDDQDVSKILFEQVENWAQSYGMTQLLGPFSLSPIYGAGMLIAGFDDSPYVAMPYNRSYYPNQLESSGFKKAKDYNAFRIKGELTIPEFLTKNAQRWRNKRITYRQLNPDQLAQESDLVCDLYNDGFAGQWGYTYIERSEFYQLVLDWIQVIDPRLFLFVLIGDNPVGFGMLVPDVFQILHQTKTLPGLLRYLGRRIFTFGRENEITRYRLDSLCIRKQYQSLGLGVLLWCEIMQQYLNSNYTEIEFSPILEDNTMAQTLLLKLGAERSKVYRVFEKSWCN”, “not soluble”; in that of “MGSDKIHHHHHHMHFIMMKLFRVVKRGYYISYAILDNSTIIRLDEDPIKALMRYSENKEVLGDRVTGIDYQSLLKSFQINDIRITKPIDPPEVWGSGISYEMARERYSEENVAKILGKTIYEKVYDAVRPEIFFKATPNRCVGHGEAIAVRSDSEWTLPEPELAVVLDSNGKILGYTIMDDVSARDLEAENPLYLPQSKIYAGCCAFGPVIVTSDEIKNPYSLDITLKIVREGRVFFEGSVNTNKMRRKIEEQIQYLIRDNPIPDGTILTTGTAIVPGRDKGLKDEDIVEITISNIGTLITPVKKRRKIT”, “not soluble”.
In the case of “MGNKAERHRAIQEIVRREEIGTQKELVERLRQLGFEVTQATVSRDIAELGLARIALGKGRHRYVLPAADLPENAYEELKRQFGLFVRDVDRGGNLLVVKTAEGHASGIAYLLDRLRRDEIVGTLAGDDTILVVARTEEAAQALEDEFAGLLVEGRALRRALSGS” it was “soluble”; in that of “MHGLQDDPDLQALLKGSQLLKVKSSSWRRERFYKLQEDCKTIWQESRKVMRSPESQLFSIEDIQEVRMGHRTEGLEKFARDIPEDRCFSIVFKDQRNTLDLIAPSPADAQHWVQGLRKIIHHSGSMDQRQK”, “soluble”.
Next, “MGSDKIHHHHHHMKKLVFDYEMKLSFSSPVTDHRFQLRCIPATGPRQQVIDVAVKIEPDVELETTIDSFDSVVMTGFIPEPHTMFNYSVTGIAFVDNAHIKSEIYKPLYRFNSALTVPGPAIEALIGICHERIVSLPADCTPIDQAREVMDEVFKTFVYTPASTTIRTTAEEAFAQRKGVCQDYAHVMLSVCRHVGLTARYIAGLLGGEGATHAWVEIYHDGRWVGLDPTHNRMVDDNYITIAHGRDYRDCMLDIGIFSGCDVKQDQWVNASVHEQGY”: “not soluble”; “CFSCLNQKSNLYCLKPTICSDQDNYCVTVSASAGIGNLVTFGHSLSKTCSPACPIPEGVNVGVASMGISCCQSFLCNFS”: “soluble”; “MSLEISFTRVALLAAALFFVGCDQKPQPAKTHATEVTVLEGKTMGTFWRASIPGIDAKRSAELKEKIQTQLDADDQLLSTYKKDSALMRFNDSQSLSPWPVSEAMADIVTTSLRIGAKTDGAMDITVGPLVNLWGFGPEQQPVQIPSQEQIDAMKAKTGLQHLTVINQSHQQYLQKDLPDLYVDLSTVGEGYAADHLARLMEQEGISRYLVSVGGALNSRGMNGEGLPWRVAIQKPTDKENAVQAVVDINGHGISTSGSYRNYYELDGKRLSHVIDPQTGRPIEHNLVSVTVIAPTALEADAWDTGLMVLGPEKAKEVVRREGLAVYMITKEGDSFKTWMSPQFKSFLVSEKEGGSHHHHHH”: “soluble”.
For “MGSDKIHHHHHHMGLLYRETYEVPFYESDTNHYMKLPQLLALALQISAKQSLKLGIGDDIVFKRYGLVWVVTDYIIDIERLPKHAEKIVIETEAKAHNKLLCYRYFYIYGEDGQKIITISSAFVLMDFKTRKIHPVLDDITSIYQSQRIKKVIRGPKYHPIGDSKVKQYHVRYFDLDMNGHVNNSKYLEWMYDVLDLDFLSSHIPKKIDLKYIKEIQYGTDIKSHWYQDGLVTRHDIIGGDAIHAQARIEWQEKKED”, the “soluble on expression in E. coli” value is “not soluble”.
In the case of “MIWIVGSGTCRGQTTERAKEIIERAEVIYGSRRALELAGVVDDSRARILRSFKGDEIRRIMEEGREREVAVISTGDPMVAGLGRVLREIAEDVEIKIEPAISSVQVALARLKVDLSEVAVVDCHAKDFDAELTELLKYRHLLILADSHFPLERLGKRRVVLLENLCMEGERIREGNADSIELESDYTIIFVEREVME” it was “soluble”.
In the case of “KTKLNITMEEDTEVLDEVVVVGYGAQKKESVVGAISQVSSKELLKSPAANISQAIAGKISGVITSQTSGAPGADDMKIYIRGRASFAGDNQPLILVDGVEREFSQIAPDDIESISTLKDASATAVYGVRGANGVMLITTKRGKEQK” it was “not soluble”; in that of “DAPAVGKDLTQAAENIPPAFHNAPRQGELPALNYVNQPPMVPHSVANYQVTKNVNQCLNCHSPENSRLSGATRISPTHFMDRDGKVGSSSSPRRYFCLQCHVSQANVDPIVPNDFKPMKGYGN”, “soluble”.
In the case of “MKASYLETLDRIKDEHAEMSKHVNQQRSDIEKVALEKENMNRSYMTYAEVSNTLRSDLRKAEEINKRLQEFIMQSLAPQLSQDNQANCLAALEAFKTASPRENGNGAPALPPGFPPGAAGMLGMMPNMPFGMSPAMSQLFNQFASPHVNGGDGAGGSSGGASEAKKAKLEDPDDGELEIDVTNDDHPSTASNGGAANKNGRDSTNSVASSGASTPSIASNSRARQQQQPLAGLQGLEQMNFLAGFNPNLLRQASAAGGFNFLNDPHAQARLAAAIGQIGSRPAYSFKIVDGGVPTPTSFPPDAQKGPGIPTGLKKKMELNHGEVVCAATISRDNSRVYTGGKGCVKIWDVKESDISGATVVNRPPIASLDCLKENYIRSCKLFEDGNTLLIGGEASTVALWDLTTETKTLDLETDSQACYALAMSPDEKLLFACLADGNILIYDIHNKVKVGTLPGHQDGASCLDLSKDGTKLWSGGLDNSVRCWDLAQRKEVAKHDFASQVFSLGCCPNDEWVAVGMENNYVEVLSTTGKEKYQLTQHESCVLSLKFAHSGKFFISTGKDNALNAWRTPYGASLFQLKENSSVLSCDISFDDSLIVTGSGEKKATLYAVEY” it was “not soluble”; in that of “KGTVCVTNLSTGSKRLGAIAPNSTMLAVRNSADCLLALQQNHADAVISDDAILSGMIAQDPFTHIVGDPIATEQYAVAFAKPRTGRDTAPMIRQVNSTFERIFRDGTWTRTYNHWFGAYLAPQVHPAVHYREER”, “not soluble”; in that of “MARQSSSLKSFIYKDECYFYSKKCIKTLRLRLNEKGEFVLSIPYFCTFKSVYEFLDKSSSWMNEAKKRFEKKVLKDDELIFLAKKYKIIFDENTKKTYFDKDKIICQNKAKLDLFLRQNAKKIFTFYLKKWSQKTGLFYTHLSIKNMKTRWGSCNHNKAYVNLNLKLIQKSLRAIEYVILHEISHLKFPNHSKEFYTFIEHFMSDFRQREKEFLSLEHHHHHH”, “soluble”.
Consider “AVPFVEDWDLVQTLGEGAYGEVQLAVNRVTEEAVAVKIVDMKRAVDCPENIKKEICINKMLNHENVVKFYGHRREGNIQYLFLEYCSGGELFDRIEPDIGMPEPDAQRFFHQLMAGVVYLHGIGITHRDIKPENLLLDERDNLKISDFGLATVFRYNNRERLLNKMCGTLPYVAPELLKRREFHAEPVDVWSCGIVLTAMLAGELPWDQPSDSCQEYSDWKEKKTYLNPWKKIDSAPLALLHKILVENPSARITIPDIKKDRWYNKPLKKG”, for which the “soluble on expression in E. coli” value is recorded as “soluble”.
With “MGSDKIHHHHHHMELYRDPSQPIEVRVRDLLSRMTLEEKVAQLGSVWGYELIDERGKFSREKAKELLKNGIGQITRPGGSTNLEPQEAAELVNEIQRFLVEETRLGIPAMIHEECLTGYMGLGGTNFPQAIAMASTWDPDLIEKMTTAVREDMRKIGAHQGLAPVLDVARDPRWGRTEETFGESPYLVARMGVSYVKGLQGEDIKKGVVATVKHFAGYSASEGGKNWAPTNIPEREFKEVFLFPFEAAVKEANVLSVMNSYSEIDGVPCAANRKLLTDILRKDWGFEGIVVSDYFAVKVLEDYHRIARDKSEAARLALEAGIDVELPKTECYQYLKDLVEKGIISEALIDEAVTRVLRLKFMLGLFENPYVEVEKAKIESHRDIALEIARKSIILLKNDGILPLQKNKKVALIGPNAGEVRNLLGDYMYLAHIRALLDNIDDVFGNPQIPRENYERLKKSIEEHMKSIPSVLDAFKEEGIEFEYAKGCEVTGEDRSGFEEAIEIAKKSDVAIVVVGDKSGLTLDCTTGESRDMANLKLPGVQEELVLEVAKTGKPVVLVLITGRPYSLKNVVDKVNAILQVWLPGEAGGRAIVDIIYGKVNPSGKLPISFPRSAGQIPVFHYVKPSGGRSHWHGDYVDESTKPLFPFGHGLSYTKFEYSNLRIEPKEVPPAGEVVIKVDVENIGDRDGDEVVQLYIGREFASVTRPVKELKGFKRVSLKAKEKKTVVFRLHMDVLAYYNRDMKLVVEPGEFKVMVGSSSEDIRLTGSFSVVGEKREVVGMRKFFTEACEE”, the “soluble on expression in E. coli” value is reported as “not soluble”.
Next, “MAHHHHHHMLLQFNWDRLDVTAAEAICALLNAKLEEELLLRRAANQSVNASGGQETASADAACGVESLRVTNIEWGNVPPFIEVVELDDAVEFASSTPLSFEAPLGQQDFGGTISSGTCGGGATTPFFLRPSPASSVTMMDGISETDSGIVGNHGGMPTPSVPPASGIRPGNGQSPINSSSAPVKDAFAAYFGPKGLYVCLHVTYGGPMRVSVASVLRHDVPLGPIAIPVRMPLQLHFSKMDMDFHLCINLHRNTCRVWMEPGKLFTSPLNRMNVMAVFGERRPSSQHMAEFPTSGQNAGDDLDTSDAWTHVGSSRIGSDDAEDMVFIDESIISQFVLKEVRAILQEKIIYPHSVVVPLSL”: “not soluble”.
